This note sets out measurements from patent US20200024322A1 (Eli Lilly, published 2020).

The target in experiment [1] is T1, human gastric inhibitory peptide receptor (GIPR) (human, UniProt P48546 22-466).
T1 sequence (looked up): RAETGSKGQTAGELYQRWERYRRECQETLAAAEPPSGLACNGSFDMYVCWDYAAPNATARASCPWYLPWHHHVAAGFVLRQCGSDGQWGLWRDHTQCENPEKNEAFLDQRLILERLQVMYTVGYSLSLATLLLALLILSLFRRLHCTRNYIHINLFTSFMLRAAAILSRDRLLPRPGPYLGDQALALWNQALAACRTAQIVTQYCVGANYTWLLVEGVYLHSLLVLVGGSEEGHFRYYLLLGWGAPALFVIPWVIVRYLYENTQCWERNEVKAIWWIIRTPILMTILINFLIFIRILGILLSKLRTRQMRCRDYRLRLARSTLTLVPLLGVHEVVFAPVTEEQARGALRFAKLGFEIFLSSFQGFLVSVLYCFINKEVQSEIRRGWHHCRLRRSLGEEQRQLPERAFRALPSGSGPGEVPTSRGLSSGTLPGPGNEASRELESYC
The experiment can be described thus: cell-based or functional assay.

Experiment [2] concerns the target human GLP-1 receptor (GLP-1R) (human, UniProt P43220 24-463). The experiment can be described thus: cell-based or functional assay.
Experiment [3] deals with T2, human GIP receptor (human, UniProt P48546 22-466).
T2 construct: whole, on cells; also called hGIPR; hGIP-R
T2 sequence (looked up): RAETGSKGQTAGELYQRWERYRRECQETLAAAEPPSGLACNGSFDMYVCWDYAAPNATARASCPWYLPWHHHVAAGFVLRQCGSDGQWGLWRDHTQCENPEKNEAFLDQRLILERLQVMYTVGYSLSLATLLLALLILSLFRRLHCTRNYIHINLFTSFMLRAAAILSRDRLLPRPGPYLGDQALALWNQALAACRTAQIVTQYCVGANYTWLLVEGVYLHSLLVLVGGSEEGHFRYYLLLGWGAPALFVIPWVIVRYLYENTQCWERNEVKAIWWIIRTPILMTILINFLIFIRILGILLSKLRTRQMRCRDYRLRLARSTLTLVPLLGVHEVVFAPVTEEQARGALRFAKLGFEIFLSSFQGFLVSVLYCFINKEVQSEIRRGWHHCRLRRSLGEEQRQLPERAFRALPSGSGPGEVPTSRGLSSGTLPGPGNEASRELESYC
The experiment can be described thus: [125I]-GIP competition SPA, hGIPR membranes.

Experiment [4] has as its target T3, human GLP-1 receptor (human, UniProt P43220 24-463).
T3 construct: whole, on cells; also called hGLP-1R; hGLP1R
The experiment can be described thus: [125I]-GLP-1 competition SPA, hGLP-1R membranes. The procedure, abridged: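 Competition binding in 25 mM HEPES pH 7.4, 2.5 mM CaCl₂, 1 mM MgCl₂, 0.1% bacitracin, 0.003% TWEEN-20, EDTA-free protease inhibitors. IC₅₀ from four-parameter nonlinear fit; Kᵢ given as geometric mean ± SEM, n = independent replicates on different days.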

Experiment [5] addresses T4, human glucagon receptor (human, UniProt P47871 26-477).
T4 construct: whole, on cells; also called hGcgR; GcgR
The experiment can be described thus: [125I]-Gcg competition SPA, hGcgR membranes.

T4 sequence (P47871 26-477): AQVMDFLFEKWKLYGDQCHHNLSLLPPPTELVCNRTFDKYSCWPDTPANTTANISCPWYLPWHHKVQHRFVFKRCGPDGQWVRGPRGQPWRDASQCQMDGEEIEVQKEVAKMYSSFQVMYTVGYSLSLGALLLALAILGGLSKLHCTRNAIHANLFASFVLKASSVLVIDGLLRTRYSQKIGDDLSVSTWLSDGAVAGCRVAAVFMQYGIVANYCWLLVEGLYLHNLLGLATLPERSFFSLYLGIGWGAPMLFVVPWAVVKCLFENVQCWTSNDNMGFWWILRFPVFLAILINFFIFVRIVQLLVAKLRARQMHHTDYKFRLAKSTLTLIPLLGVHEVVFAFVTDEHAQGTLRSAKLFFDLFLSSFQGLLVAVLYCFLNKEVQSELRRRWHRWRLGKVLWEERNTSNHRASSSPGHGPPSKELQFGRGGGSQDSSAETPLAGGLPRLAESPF

B1: (D-Tyr)-Aib-EGTFTSDYSI-αMeL-LDKK((2-[2-(2-Amino-ethoxy)-ethoxy]-acetyl)2-(γ-Glu)-CO-(CH2)16-CO2H)AQ-Aib-AFIE-αMeY-LIAGGPSSGAPPPS-NH2 (peptide)
peptide: XXEGTFTSDYSIXLDKKAQXAFIEXLIAGGPSSGAPPPS
modifications: D-Tyr1; Aib2; αMeL13; K17 conjugated to (2-[2-(2-Amino-ethoxy)-ethoxy]-acetyl)2-(γ-Glu)-CO-(CH2)16-CO2H; Aib20; αMeY25; C-terminal amide (NH2)
Take B1: the “hGIPR cAMP EC50 ratio” value in experiment [1] is 0.734. The “hGLP1R cAMP EC50 ratio” value in experiment [2] worked out at 0.159.

B2: (D-Tyr)-Aib-EGTFTSDYSI-αMeL-LD-Orn-K((2-[2-(2-Amino-ethoxy)-ethoxy]-acetyl)2-(γ-Glu)-CO-(CH2)18-CO2H)AQ-Aib-AFIE-αMeY-LIAGGPSSGAPPPS-NH2 (peptide)
peptide: XXEGTFTSDYSIXLDXKAQXAFIEXLIAGGPSSGAPPPS
modifications: D-Tyr1; Aib2; αMeL13; Orn16; K17 conjugated to (2-[2-(2-Amino-ethoxy)-ethoxy]-acetyl)2-(γ-Glu)-CO-(CH2)18-CO2H; Aib20; αMeY25; C-terminal amide (NH2)
On to B2, for which the “hGIPR cAMP EC50 ratio” value in experiment [1] turned out to be 0.598. For the same molecule, the “hGLP1R cAMP EC50 ratio” value in experiment [2] was determined as 0.074.

B3: (D-Tyr)-Aib-EGTFTSDYSI-αMeL-LD-Orn-K((2-[2-(2-Amino-ethoxy)-ethoxy]-acetyl)2-(γ-Glu)-CO-(CH2)16-CO2H)AQ-Aib-EFIE-αMeY-LIAGGPSSGAPPPS-NH2 (peptide)
peptide: XXEGTFTSDYSIXLDXKAQXEFIEXLIAGGPSSGAPPPS
modifications: D-Tyr1; Aib2; αMeL13; Orn16; K17 conjugated to (2-[2-(2-Amino-ethoxy)-ethoxy]-acetyl)2-(γ-Glu)-CO-(CH2)16-CO2H; Aib20; αMeY25; C-terminal amide (NH2)
As to B3, in experiment [1], the “hGIPR cAMP EC50 ratio” value stood at 1.13. The “hGLP1R cAMP EC50 ratio” value in experiment [2] amounted to 0.178.

B4: (D-Tyr)-Aib-EGTFTSDYSI-αMeL-LD-Orn-K((2-[2-(2-Amino-ethoxy)-ethoxy]-acetyl)2-(γ-Glu)-CO-(CH2)16-CO2H)AQ-Aib-EFIEYLIAGGPSSGAPPPS-NH2 (peptide)
peptide: XXEGTFTSDYSIXLDXKAQXEFIEYLIAGGPSSGAPPPS
modifications: D-Tyr1; Aib2; αMeL13; Orn16; K17 conjugated to (2-[2-(2-Amino-ethoxy)-ethoxy]-acetyl)2-(γ-Glu)-CO-(CH2)16-CO2H; Aib20; C-terminal amide (NH2)
As to B4, the “hGIPR cAMP EC50 ratio” value in experiment [1] was 0.109. The “hGLP1R cAMP EC50 ratio” value in experiment [2] was 0.299.

B5: (D-Tyr)-Aib-EGTFTSDYSI-αMeL-LD-Orn-K((2-[2-(2-Amino-ethoxy)-ethoxy]-acetyl)2-(γ-Glu)-CO-(CH2)16-CO2H)AQ-Aib-AFIE-αMeY-LIAGGPSSGAPPPS-NH2 (peptide)
peptide: XXEGTFTSDYSIXLDXKAQXAFIEXLIAGGPSSGAPPPS
modifications: D-Tyr1; Aib2; αMeL13; Orn16; K17 conjugated to (2-[2-(2-Amino-ethoxy)-ethoxy]-acetyl)2-(γ-Glu)-CO-(CH2)16-CO2H; Aib20; αMeY25; C-terminal amide (NH2)
For B5, the “hGIPR cAMP EC50 ratio” value in experiment [1] came out at 0.976. Besides, in experiment [2], the “hGLP1R cAMP EC50 ratio” value was 0.199.

B6: (D-Tyr)-Aib-EGTFTSDYSI-αMeL-LDKK((2-[2-(2-Amino-ethoxy)-ethoxy]-acetyl)2-(γ-Glu)-CO-(CH2)18-CO2H)AQ-Aib-AFV-(D-Glu)-YLIAGGPSSGAPPPS-NH2 (peptide)
peptide: XXEGTFTSDYSIXLDKKAQXAFVXYLIAGGPSSGAPPPS
modifications: D-Tyr1; Aib2; αMeL13; K17 conjugated to (2-[2-(2-Amino-ethoxy)-ethoxy]-acetyl)2-(γ-Glu)-CO-(CH2)18-CO2H; Aib20; D-Glu24; C-terminal amide (NH2)
Regarding B6, the “hGIPR cAMP EC50 ratio” value in experiment [1] came to 0.261. Besides, the “hGLP1R cAMP EC50 ratio” value in experiment [2] came to 0.0259.

B7: (D-Tyr)-Aib-EGTFTSDYSI-αMeL-LDKK((2-[2-(2-Amino-ethoxy)-ethoxy]-acetyl)2-(γ-Glu)-CO-(CH2)18-CO2H)AQ-Aib-EFIE-αMeY-LIEGGPSSGAPPPS-NH2 (peptide)
peptide: XXEGTFTSDYSIXLDKKAQXEFIEXLIEGGPSSGAPPPS
modifications: D-Tyr1; Aib2; αMeL13; K17 conjugated to (2-[2-(2-Amino-ethoxy)-ethoxy]-acetyl)2-(γ-Glu)-CO-(CH2)18-CO2H; Aib20; αMeY25; C-terminal amide (NH2)
Regarding B7, the “hGIPR cAMP EC50 ratio” value in experiment [1] amounted to 0.672. For the same molecule, in experiment [2], the “hGLP1R cAMP EC50 ratio” value stood at 0.114.

B8: (D-Tyr)-Aib-EGTFTSDYSI-αMeL-LD-Orn-K((2-[2-(2-Amino-ethoxy)-ethoxy]-acetyl)2-(γ-Glu)-CO-(CH2)18-CO2H)AQ-Aib-AFV-(D-Glu)-YLIAGGPSSGAPPPS-NH2 (peptide)
peptide: XXEGTFTSDYSIXLDXKAQXAFVXYLIAGGPSSGAPPPS
modifications: D-Tyr1; Aib2; αMeL13; Orn16; K17 conjugated to (2-[2-(2-Amino-ethoxy)-ethoxy]-acetyl)2-(γ-Glu)-CO-(CH2)18-CO2H; Aib20; D-Glu24; C-terminal amide (NH2)
On to B8, for which, in experiment [1], the “hGIPR cAMP EC50 ratio” value worked out at 0.347. Besides, the “hGLP1R cAMP EC50 ratio” value in experiment [2] came out at 0.0805.

B9: Example 335 (peptide)
peptide: XXEGTXTSDYSIXLDKKAQXAFIEYLIEGGPSSGAPPPS
modifications: D-Tyr1; Aib2; αMeF6; αMeL13; K17((2-[2-(2-Amino-ethoxy)-ethoxy]-acetyl)2-(γ-Glu)-CO-(CH2)18-CO2H); Aib20; C-terminal NH2
In the case of B9, the Ki in experiment [3] is 0.0444 nM; in experiment [4], 2.54 nM; in experiment [5], 27.1 nM.

B10: Example 358 (peptide)
peptide: XXEGTFTSDYSIXLDXKAQXAFVEYLIAGGPSSGAPPPS
modifications: D-Tyr1; Aib2; αMeL13; Orn16; K17((2-[2-(2-Amino-ethoxy)-ethoxy]-acetyl)2-(γ-Glu)-CO-(CH2)18-CO2H); Aib20; C-terminal NH2
For the molecule B10, the values for the Ki in experiment [3], in experiment [4] and in experiment [5] were 0.0636 nM, 1.37 nM and 915 nM, respectively.

B11: (D-Tyr)-Aib-EGTFTSDYSI-αMeL-LDKK((2-[2-(2-Amino-ethoxy)-ethoxy]-acetyl)-(γ-Glu)-CO-(CH2)18-CO2H)AQ-Aib-AFIE-αMeY-LIAGGPSSGAPPPS-NH2 (peptide)
peptide: XXEGTFTSDYSIXLDKKAQXAFIEXLIAGGPSSGAPPPS
modifications: D-Tyr1; Aib2; αMeL13; K17 conjugated to (2-[2-(2-Amino-ethoxy)-ethoxy]-acetyl)-(γ-Glu)-CO-(CH2)18-CO2H; Aib20; αMeY25; C-terminal amide (NH2)
On to B11, for which, in experiment [1], the “hGIPR cAMP EC50 ratio” value was found to be 0.287. In addition, the “hGLP1R cAMP EC50 ratio” value in experiment [2] was determined as 0.0621.

B12: (D-Tyr)-Aib-EGTFTSDYSI-αMeL-LD-Orn-K((2-[2-(2-Amino-ethoxy)-ethoxy]-acetyl)2-(γ-Glu)-CO-(CH2)18-CO2H)AQ-Aib-DFIEYLIAGGPSSGAPPPS-NH2 (peptide)
peptide: XXEGTFTSDYSIXLDXKAQXDFIEYLIAGGPSSGAPPPS
modifications: D-Tyr1; Aib2; αMeL13; Orn16; K17 conjugated to (2-[2-(2-Amino-ethoxy)-ethoxy]-acetyl)2-(γ-Glu)-CO-(CH2)18-CO2H; Aib20; C-terminal amide (NH2)
Regarding B12, in experiment [1], the “hGIPR cAMP EC50 ratio” value was 0.499. In addition, in experiment [2], the “hGLP1R cAMP EC50 ratio” value was 0.319.

B13: Example 360 (peptide)
peptide: XXEGTFTSDYSIXLDXKAQXAFVEYLIEGGPSSGAPPPS
modifications: D-Tyr1; Aib2; αMeL13; Orn16; K17((2-[2-(2-Amino-ethoxy)-ethoxy]-acetyl)2-(γ-Glu)-CO-(CH2)18-CO2H); Aib20; C-terminal NH2
For the molecule B13, the values for the Ki in experiment [3], in experiment [4] and in experiment [5] were 0.128 nM, 1.74 nM and 485 nM, respectively.

B14: Example 346 (peptide)
peptide: XXEGTFTSDYSIXLDXKAQXAFIEYLIAGGPSSGAPPPS
modifications: D-Tyr1; Aib2; αMeL13; Orn16; K17((2-[2-(2-Amino-ethoxy)-ethoxy]-acetyl)2-(γ-Glu)-CO-(CH2)18-CO2H); Aib20; C-terminal NH2
Consider B14, for which the Ki in experiment [3] was 0.0559 nM; in experiment [4] it was 1.67 nM; in experiment [5], 310 nM.

B15: (D-Tyr)-Aib-EGTFTSDYSI-αMeL-LD-Orn-K((2-[2-(2-Amino-ethoxy)-ethoxy]-acetyl)2-(c-Glu)-CO-(CH2)18-CO2H)AQ-Aib-EFIEYLIAGGPSSG-NH2 (peptide)
peptide: XXEGTFTSDYSIXLDXKAQXEFIEYLIAGGPSSG
modifications: D-Tyr1; Aib2; αMeL13; Orn16; K17 conjugated to (2-[2-(2-Amino-ethoxy)-ethoxy]-acetyl)2-(c-Glu)-CO-(CH2)18-CO2H ('c-Glu' as printed, presumably γ-Glu); Aib20; C-terminal amide (NH2)
On to B15, for which the “hGIPR cAMP EC50 ratio” value in experiment [1] stood at 0.704. Besides, the “hGLP1R cAMP EC50 ratio” value in experiment [2] was 0.172.

As usually defined, the Ki is the dissociation constant of the complex between target and ligand, obtained from inhibition or displacement. A higher Ki goes with weaker binding.
